The nature of the data set: soluble fraction after stress (log2 fold change); higher = more stays soluble; pooled small domains, quantitative proteomics. To be noted: stress: 50 degC. Summed up:
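Quantitative proteomics served as the high-throughput read-out for pooled custom libraries of small protein domains. Each was stressed at 50°C. Aggregation propensity is expressed as the base-two log fold change in soluble protein after stress. A higher value means a larger share of the protein remains in solution.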
Turning to “HMEQQSIYLENRERMTINQVIDVDAFDEETLWANLKEGAVEISGSGLHIEKLDLAEGVLIVSGIIRAFAYV”, the “soluble fraction (log2)” value was -0.647.
The figure for “HMEQQVDYTQFIQDVRQGQIREVDVDRNGVINGIKRSGENFVTVIPGGYDRDLINDLVKQGVNATGEL” is 0.107; for “HMEQVKFFDAKVITTPPNRLKTRYTPAGNLRPEADWLQSGAIVPVYETSGAGWYRIGYQTWASAEWMQRLD” it is -0.934; for “HMEQVSDPALLERYAKEVVAASPKAVADYQAGNAKAFQALVGQMMKRTKGKGDPALIREILQKL” it is 0.0957.
Next, “HMEQVTMSNFLDKWGTSTKSPNAWYTSLSPMQKAEAKLLKEESGLTWNKWYEKNIYVGDGTN”: 0.249; “HMERAYGVRVSLRLDDPFRTLLGADWSRTHWFASAEERDAALLEMSRKHEFSRPGDQPALVYEKVQN”: -0.728.
As to “HMERDVNQLTPRERDILKLIAQGLPNKMIARRLDITESTVKVHVKHMLKKMKLKSRVEAAVWVHQERI”, the “soluble fraction (log2)” value is -1.38.
With “HMEREQNILQGREVVERELRRLGLAEAYTVSDIAKALKFDDEEQFLAKVGFGDIQSRQISGAIALMEKN”, the “soluble fraction (log2)” value is 0.0472.
“HMERFLENAIPVLGETGLDIKSATEDFENALIRQALHLSGGNKNRAATLLGLKRTTFVEMLKRKSL”: the “soluble fraction (log2)” value is -0.806.
For the sequence “HMERFMEFVITDTQQGQRLDVVLTETTEHLGSRSHMQRSIRAGLVSIDGITTTRASTKVSSGQIIRVEPT”, the “soluble fraction (log2)” value is -1.49.
Take “HMERGEFQKLGRATLEQTLARAGKTLAEVSLKAMLETFAFAAEEDLYEALGRGRVSAAKVGETLFPALKGR”: the “soluble fraction (log2)” value was -0.0985.
Regarding “HMERKMKNNISDQTTYDTDKILNFNGKGYLNGLVIPNNYQIKEEGYYVFRQVALDGREQILYFTIQDLS”, the “soluble fraction (log2)” value was -1.96.
The figure for “HMERLSVSMGDMVVFVRDAVEAFRGLVKEKGITLTFESKVEHFYMNYDHDKVYKVVNNLLSNAVKFT” is -0.209; for “HMERLTVVPELLKRSLSEAQPLVTSARLRLEVSGGAPEDTSRAIVVGQKPPPGTRVQVGTTVIVTVQIQRP” it is -0.0498.
Next, “HMERPYNGKQMEYHEGGVEKKETLFVEGGLSRVIQWDESGQKRSEVNISPTGVRREQYWDSSGKAIAKPS”: 0.228.
For “HMERQAEAWTNRASALISLGRDEEALEAADRAIELDPRLSKAWIDRSTALSNLGRNDEANEAIQMAMFL”, the “soluble fraction (log2)” value came to 0.108.
As to “HMERQILFTKEDLIEFGLSGGTDSRKRRDVLGHILGIGYSNSKQFLNRLNNFGVTREEFLSAIERIG”, the “soluble fraction (log2)” value is -0.778.
The figure for “HMERTVEVVDINDVFSQFLRLYSRERAAGLLSVFKRVEHGLSWQGNPVLLERILSNVFENAIKYAA” is -0.0515.
The figure for “HMERVIYLLNGREVPAAEIRAAEPEALTVDRFYSSENLPAEYRDRNPELVVAFTAEEPLRHY” is 0.358.
Take “HMERVNILEKATKDIPNVEVKAFEGLSVNFARENHAQVIVRGLRAVTDFEYELQMAQTNRVLAPDVDTVF”: the “soluble fraction (log2)” value was determined as 0.124.
Next, “HMERYSVQVGSFRNMRYAERLKQELQGEDFPAYIEKSGEFNRVRVGKGLTLEEATQLEQVLRKSGYQTVIV”: -0.395; “HMESIGANIRRLRKERNMSQDELARKAFTNRSNINRYESGKMVPSADTTEKIEEALGVPAGTLAQ”: 0.132.
Take “HMESKDIRYVQLQTVSPEEVLQALALIMPRSDVYVEPTGKLVVLHGSKETLDRAEELILALDNAV”: the “soluble fraction (log2)” value is 0.0118.
The figure for “HMESKITTAEAAAILNASPQFVRVAMQRGILNIGIAMQMPNSNKWTYNISPKLLGEYSGKNIEYELERLR” is -1.54; for “HMESRTQVYDFYKDLFREKRRPLRAEEMLSALKSQRGIVGVNQYQIIEQHGIVRLSGSGRSALYWDTDLGS” it is -2.74.
The figure for “HMESSREVSFSEFMKQIDSGRVSSVKLDGETIYVRNSDGTSYKVIQPLGTDLIGVLRKSDIDVQAIKQ” is -0.003.
The figure for “HMESYNIVEQVLTKKILSKGNTLAKLSNEFDGLVMLVIRGDEFIIPNGETLLFEKDILVINNGP” is -1.72.
In the case of “HMESYTGLAVTEDDDGWSNVRSGNSTSYSILFKIYAGEKFNILSNDGKWSYIDFNGRKGYIHNSIIRKY”, the “soluble fraction (log2)” value was -3.87.
With “HMETAADLLAAAKENPARFGILASEGRFGLGYMNDDLLDPDNLVAISREEADDLRGLGVYFHNLD”, the “soluble fraction (log2)” value was -0.0842.
The figure for “HMETALYVEDLDRAVRFYESVMGLNTMSRGVRLVALDAGEGTVLLLFLRGATTSGASFEGGWIPPH” is -0.0244.
The figure for “HMETDNEKVRTAFQNGLAAYREQDWDRAEAAFGAVLAEMPEDRPSLVYLERIAHLRKKAPPGAWDGVWI” is -0.0616; for “HMETENLSPREREILEYIVKGYSYKMIAADLNIATETVRSHIKKIYKKLQVNSATEAVYKYSN” it is -0.322.
As for “HMETEQVEMIRVVGMHVDEAKKALLDLGLSPEIKYEESSSYDAGTVLRASVQDGLMIDKGTNIVLTVAEA”, the “soluble fraction (log2)” value came out at 0.121.
The figure for “HMETFEKIKELAKKRGKALGQVEEDLGYGRNTLYKIKNSTPNAERIAEIANYFNVSTDYLLGRTDNPTIAK” is 0.203.
The figure for “HMETFNMTQKEITRLRVINQAIDKVITIREAAELLGLSERQVIRLKGGVEKFGPAFIIHKNRGRKP” is -0.71; for “HMETGLSNYEFKRIREQAEALLSDGQVRRINDLVDSIKNENAEKVIRVIRFLIDTEELILEDDRVSAKKS” it is -0.0558.
As for “HMETIVGIDPDSKKKIVLKKGIKGRPDYLSFNKKNYSLPSELKEKNVSLEQALEIINDKKSNKKKIK”, the “soluble fraction (log2)” value came out at 0.334.
Turning to “HMETLSKVGSTGSEVRQIQTKLKNWGYFSDKVDGIYGEKTRAAVVWFQKKNGLTADGIAGPATLKAMGIYT”, the “soluble fraction (log2)” value is -0.171.
Next, “HMETLSVRERMTSIISLLNKHEDIEFSKLFNISEGRLGVVVTFLALLELVKESLVDVIQNQPMSKLYIGKK”: -0.311; “HMETLTPQEHKVLLLAVKGRTNGEIASELGIAQNTVKNHLAHIYAKMGVGNRTELASEYLRRIH”: 0.0726; “HMETTEELISKTVPISYADMAALTGILDGVKSARGDIQVDDRTSTIIIHDIQSSIDEMMRLIKILD”: -0.999.
For “HMETTMVEIKAEFTIRNRLDIPAMMEKAGYKDRGEFLSVLEKITGNYNWDRDVKKGDTFMVPSKLA”, the “soluble fraction (log2)” value is -0.777.
On to “HMETVPMIDLRGMTQEQAEKAIVGLGLTVGTVDHSSSDMPAGQVWFQSVEPKDEVAPGTKVNIIISTGS”, for which the “soluble fraction (log2)” value is -0.000277.
Take “HMETYNLDVGDSAVLQYQNVSRISVGNPDVLDAIPLDKSQILLTGKATGGAALIVWDSKGMHMEKVMVHPA”: the “soluble fraction (log2)” value was -0.156.
Turning to “HMETYTVSSKDGYANVRNEATVNSDLIAELKNGTLVTKFKEKGEWYYIEFEREDGTPFDYGYIHKSQLK”, the “soluble fraction (log2)” value amounted to 0.181.
Consider “HMEVALEVPELRGLSMKQATNTLMASGFEVQKVGSGTIYAQFPLPGERLRTGYAVTIRGKTRDLG”, for which the “soluble fraction (log2)” value is -0.258.
Consider “HMEVAPEKVLEALNELPEIYKIVLNLYAVENMSHKEIAKKLGISLGSSKSRLSRGRVMLNTLLNR”, for which the “soluble fraction (log2)” value was -1.42.
The figure for “HMEVDWLEVEKVIVSSSYSWMENSPKVKLLQEYIGVTADGIYGLGTWGAHRTHAVDLGFINLSYPIP” is -0.127; for “HMEVEADEFQQLLRSGEYVQALDRARANQDIGLRQQQIVQIARHQAASGIQAGAMGSLASLYQF” it is 0.0182; for “HMEVHLMPGTVLLREYESNEYRVTVTPEGFYDLNGKVFKSLSAVARHITGVNWSGPRFFGVEP” it is -2.08.

The record behind these values is the domain aggregation screens of Martell et al. (2025).
